Assay results from publication PMC4408887 (Nature chemistry, 2015).
Positions of bridges follow the written chain, without caps; N, C: chain ends. Non-standard residues stand in square brackets, D forms with d. Residues, ends and D or L forms follow the SMILES beside them. Triazole bridges read from a SMILES are 1,4-linked. Chains are numbered I, II in the order given. No end group written: not given here. *: point of attachment. Biotin = O=C1N[C@H]2[C@H](CS[C@H]2CCCCC(=O)*)N1; Lys(N3) = [N-]=[N+]=NCCCC[C@H](N)C(=O)O; PEG5 = NCCOCCOCCOCCOCCOCCC(=O)O; Pra = C#CC[C@H](N)C(=O)O

Experiments:
[1] = molecular target: label-modified yleaf peptide used in fluorescence polarization; assay: fluorescence polarisation
[2] = system: E17K versus WT PH Domain of Akt1 - PIP3 interaction; assay: PIP3 agarose inhibition, E17K relative to WT; type: biochemical; conditions: triligand 0.1-1000 eq
WT or E17K GST-Akt1 = assay: Point ELISA in human serum; type: binding; conditions: 150 nM protein, 0%, 1% and 2% human serum in TBS
[3] = system: Akt1^E17K relative to Akt2^E17K; assay: Point ELISA, Akt1 and Akt2 isoforms; type: binding; conditions: 100 nM protein, triplicate
[4] = molecular target: WT 33-mer PH Domain epitope of Akt1 (Homo sapiens, UniProt P31749); assay: Fluorescence polarization binding to WT 33-mer epitope
full length Akt1^E17K = full length Akt1^E17K (UniProt P31749 1-480, E17K); assay: fluorescence polarisation
full length Akt1 (WT) = full length Akt1 (WT) (UniProt P31749 1-480); assay: fluorescence polarisation

Molecule: WT 6-His-tagged 33-mer PH Domain peptide fragment of Akt1 (from UniProt P31749 1-33)
- Kd [1]: 2800 nM

Molecule: CC[C@@H](C)[C@@H](NC(=O)CCOCCOCCOCCOCCOCCNC(=O)CCCC[C@@H]1SC[C@@H]2NC(=O)N[C@@H]21)C(=O)N[C@@H](C(=O)N[C@H](CC(=O)O)C(=O)N[C@H](C)C(=O)N[C@H](CCC(=O)O)C(=O)N[C@@H](Cc1cn(CCCC[C@H](NC(C)=O)C(=O)N[C@H](Cc2ccc(O)cc2)C(=O)N[C@H](CC(C)C)C(=O)N[C@H](CCC(=O)O)C(=O)N[C@H](C)C(=O)N[C@H](Cc2ccccc2)C(=O)N[C@@H](Cc2cn(CCCC[C@H](NC(C)=O)C(=O)N[C@H](Cc3ccc(O)cc3)C(=O)N[C@H](CCCCN)C(=O)N[C@H](CO)C(=O)N[C@H](Cc3ccc(O)cc3)C(N)=O)nn2)C(=O)O)nn1)C(=O)O)C(C)C [triligand] (I: Ac-[Lys(N3)][dY][dL][dE][dA][dF][Pra]-OH / II: {Biotin-PEG5}-[dI][dV][dD][dA][dE][Pra]-OH / III: Ac-[Lys(N3)][dY][dK][dS][dY]-NH2; triazole I:1-II:6, I:7-III:1; C-terminus assumed)
- selective inhibition of E17K relative to WT [2]: significant selective inhibition of the E17K mutant relative to the WT
- reduction in binding efficiency in human serum (WT or E17K GST-Akt1): very little reduction in binding efficiency
- preference for Akt1^E17K relative to Akt2^E17K [3]: slight preference for Akt1^E17K relative to the Akt2^E17K

Molecule: CC(C)C[C@@H](NC(=O)[C@H](N)Cc1ccc(O)cc1)C(=O)N[C@H](CCC(=O)O)C(=O)N[C@H](C)C(=O)N[C@H](Cc1ccccc1)C(N)=O [yleaf] (H-[dY][dL][dE][dA][dF]-NH2)
- Kd [4]: 2800 ± 840 nM

Molecule: E17K mutant 6-His-tagged 33-mer PH Domain peptide fragment of Akt1 (from UniProt P31749 1-33)
- Kd [1]: 328 nM

Molecule: [dY][dL][dE][dA][dF] (also: label-modified, label not given here) [label-modified yleaf peptide used in fluorescence polarization]
- Kd (full length Akt1^E17K): 54 ± 7 nM
- Kd (full length Akt1 (WT)): > 1000 nM
